Source: patent publication US20150351390A1, “COMPOSITIONS AND METHODS FOR AUXIN-ANALOG CONJUGATION” (PIONEER HI-BRED INTERNATIONAL, INC., priority 2012, published 2015)
Entries after “also recorded” stand apart in the source; their conditions may differ.

Key:
soybean seedlings = assay: Soybean seedling response to spot infiltrated auxins and conjugates; assay type: in vivo; parameters: 1st trifoliate leaf curl / Epinasty score: scale not given here; settings: for 1st trifoliate leaf curl / Chlorotic lesion @ app. Pnt / Epinasty score: spot infiltration
Protocol: Conjugate forms of auxinic compounds when applied through spot infiltration, a needleless method to introduce exogenous agents into plant cells. Initially, various concentrations of analytical grade (98%+pure) IAA, 2,4-D, and dicamba were prepared as solutions that were applied directly to uni-foliate leaves of 9 day old soybean seedlings by spot infiltration in order to determine the range of auxinic response and severity.
Spot infiltration comprises applying a compound to be tested in composition that is applied to the surface of a plant, for example, to a leaf or other plant structure. For example, a method for testing a plant response to one or more compounds using spot infiltration comprises a) providing a composition comprising one or more compounds to be tested in a container having at least an opening for the compound enter and/or exit, and one or more elements for moving the composition into or out of the container; b) contacting at least one opening of the container with the surface of a plant and moving the composition comprising one or more compounds to at least the surface of the plant. A container and elements for moving the composition may comprise a syringe body and plunger. Moving the composition to the plant surface comprises contacting the surface with pressure sufficient for the composition to enter the cells of the plant. In an aspect, spot filtration testing comprises measuring an effect of the composition on the contacted plant and comparing that measure or effect to a plant that is not contacted with the composition.
Plant response phenotypes were documented at one day post-spot infiltration and subsequently every other day, up to nine days post treatment. […] In the studies described herein below, 5 replicate treatments for each conjugate form were conducted, along with appropriate negative controls.
Examples 9 and 10 utilized a spot infiltration method for the delivery of an herbicide directly to leaves of a plant. The method generally allows for the directed delivery of a variety of agents to a localized area of a plant, e.g. localized region of leaves, for screening or assessment purposes, e.g. to quickly assess the response of a plant to the agent. As used in the foregoing examples, the spot infiltration method was used to introduce specific herbicides or specific conjugates of the herbicides to seedling plant leaves. Following introduction of the herbicide or the appropriate conjugate, plants were observed daily for nine days for characteristics of epinasty, trifoliate leaf curly, chlorosis, and new growth recovery.
Briefly, a solution of the desired agent is prepared of the desired agent, e.g. as described above in Example 10, solutions (5% EtOH) of 1, 2.5 and 5 mM IAA. The solution is then drawn into a 1 mL BD™ slip-tip syringe, bulk, non-sterile syringe (e.g. Becton, Dickinson and Company, Product No. 301025) with 100 μL markings. The desired volume is then applied to the leaf, e.g. as described in Examples 9 and 10, with the tip of the syring against the leaf and positive pressure applied to the syringe plunger. Sufficient pressure is applied in order to infuse the area beneath the syringe opening, but not so much pressure as to cause a visible-to-the-eye puncture or hole to form in the leaf. Some run-off of solution around the syringe opening is expected. In the foregoing examples, two spots were applied to each of two leaves per seedling for soybean plants. […] In soybean, both spots per leaf were at the distal portion of the leaf about 1-2 cm apart. When the method was applied to Arabidopsis, two developmentally intermediate aged leaves were chosen per plant, and one spot infiltration was carried out per leaf.

[1] = LC-MS assay of GH3 conjugation of IAA with Asp or Glu; assay type: biochemical; settings: for kcat (hrs−1) IAA-Asp: conjugation of IAA with Asp by recombinant GH3 protein, IAA-Asp product by LC-MS; for kcat (hrs−1) IAA-Glu: conjugation of IAA with Glu by recombinant GH3 protein, IAA-Glu product by LC-MS
Procedure, shortened: (§1)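 Amino acid conjugates of IAA, 2,4-D or dicamba measured by LC-MS against conjugate standards, with kinetic parameters fitted to Michaelis-Menten initial velocities. Reactions: 5 mM each of auxin, ATP and Asp or Glu with 44 to 164 μg/mL purified His-tagged GH3 (E. coli-expressed), pH 8.0 Tris, 5 mM MgCl2, 1 mM DTT, 30 °C for 3 h.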

[2] = LC-MS assay of GH3 conjugation of dicamba with Asp or Glu; assay type: biochemical
Protocol: To detect and monitor the formation of acyl conjugates with 2,4-D or dicamba, a sensitive LC-MS method was developed using the respective amino acid conjugate standards. […] […] […] The supernatant was diluted 20× in water and then analyzed by LC-MS (AB Sciex 4000 QTrap coupled with Shimadzu Nexera UHPLC) using a Phenomenex Luna 3 μm Phenyl-Hexyl (00B-4256-Y0) column. The concentration of the conjugates was calculated based on the standards. Kinetic parameters were estimated by fitting initial velocity values to the Michaelis-Menten equation.
The GH3 superfamily conjugase activity analysis of IAA, 2,4-D or dicamba with Asp or Glu was done using LC-MS to analyze the final conjugate products as described in Example 1. Protein sequences of GH3 homologs (Table 3) were obtained from public databases (NCBI, http://www.ncbi.nlm.nih.gov/) by Blast analysis of AtGH3.17 protein sequence (accession # Q9FZ87). Coding sequences were designed for optimal expression in E. coli based on the protein sequences and synthesized. Synthesized coding sequences along with N-term his-tag coding sequences were cloned into a pET24a-based E. coli expression vector. The E. coli expression vectors were transformed into OverExpress C41(DE3) cells (Lucigen) for protein expression. Recombinant E. coli strains were inoculated into 5 ml LB media supplemented with 40 mg/L kanamycin and cultured overnight at 37° C. The overnight culture (0.5 mL) was inoculated into 50 mL LB medium plus 40 mg/L kanamycin and grown at 30° C. until OD600 reached 0.6. The cultures were induced with 0.2 mM IPTG at 16° C., 230 rpm overnight. Cells were harvested by centrifugation at 7,000 rpm for 10 mins. The cell pellet from 50 mL of cell culture was frozen and thawed twice and then lysed in 800 μL lysis buffer A (150 mM NaCl, 50 mM Tris-HCl pH 8.0, 5 mM MgCl2, 10% glycerol) plus 20 mM imidazole, 1 mM DTT, 0.2 mg/ml lysozyme, 1/200 protease inhibitor cocktail (EMD set3, EDTA free) and 1/2000 endonuclease. Lysate was then centrifuged at 13,000 rpm for 30 min at 4° C. Supernatant was loaded onto 200 μL Ni-NTA columns pre-equilibrated with buffer A with 20 mM imidazole at 4° C. Each column was then washed with (1) 2×800 μL of buffer A with 10 mM imidazole, (2) 2×800 μL of buffer A with 20 mM imidazole and (3) 2×200 μL of buffer A with 50 mM imidazole. Protein was eluted with 200 μL of buffer A with 250 mM imidazole. The concentration was measured by Bradford assay. Purified protein was used in conjugation reaction assays as described in example 1.

[3] = LC-MS assay of GH3 conjugation of 2,4-D with Asp or Glu; assay type: biochemical; settings: for kcat (hrs−1) 2,4-D-Asp: conjugation of 2,4-D with Asp by recombinant GH3 protein, 2,4-D-Asp product by LC-MS; for kcat (hrs−1) 2,4-D-Asp / kcat (hrs−1) 2,4-D-Glu: 5 mM 2,4-D substrate; for kcat (hrs−1) 2,4-D-Glu: conjugation of 2,4-D with Glu by recombinant GH3 protein, 2,4-D-Glu product by LC-MS
Procedure, shortened: as §1

For `O=C(COc1ccc(Cl)cc1Cl)NC(Cc1ccccc1)C(=O)O` [2,4-D-Phe], the “1st trifoliate leaf curl” value (soybean seedlings; 100 μM) was 0, the “1st trifoliate leaf curl” value (soybean seedlings; 250 μM) was 0 and the “1st trifoliate leaf curl” value (soybean seedlings; 500 μM) was 0.

In the case of `O=C(Cc1c[nH]c2ccccc12)NC(Cc1ccccc1)C(=O)O` (stereo not drawn) [IAA-Phe], the “1st trifoliate leaf curl” value (soybean seedlings; 1.0 mM) is reported as 0, the “Chlorotic lesion @ app. Pnt” value (soybean seedlings; 1.0 mM) is reported as 0 and the Epinasty score (soybean seedlings; 1.0 mM) is reported as 0. The “1st trifoliate leaf curl” value (soybean seedlings; 2.5 mM) was 0, the “Chlorotic lesion @ app. Pnt” value (soybean seedlings; 2.5 mM) was 0 and the Epinasty score (soybean seedlings; 2.5 mM) was 0. The “1st trifoliate leaf curl” value (soybean seedlings; 5.0 mM) was 0, the “Chlorotic lesion @ app. Pnt” value (soybean seedlings; 5.0 mM) was 0 and the Epinasty score (soybean seedlings; 5.0 mM) was 0. For the same molecule, the “Plant response phenotype, soybean” value (soybean seedlings; 1, 2.5 and 5 mM, result in words) was “No discernable phenotype” and the “Lesion on leaf surface at point of application, soybean” value (soybean seedlings; dissolved in 50% EtOH, consistent with 50% EtOH alone control) was “necrotic lesion on leaf surface at point of application”.

B1: PpGH3-2: GH3 protein, accession CAD42871 (protein, listed as Physcomitrella patens)
chain: MALRIENPYYKLLDTDEEIVEDFELMSRNARETQLELLRKILERNANVEYLQRQGLNGRTDEASFKACVPVSTYANIEADVDRIADGDTSPICCVDPPTSFALSSGTTGGKCKLIPRTDALLAQAMKAGQIGSVYRRRAFPRKHEGPPVVMSFQYAGRQFDTKSGLKAGTGTTNFYRSAAFKNAKSAPFSATSPVDIVLGYDVPQQMYCHLLCGLYRCQEVEQMSAIFAYMIVEPFRLLERVWRDICKDIREGTVNERVSDPELRSSVLKVLSPNPELADLIERECAKGWSGIIERLFPNINYIMSIFSGSMLPYVAPMRQYAGSVPLMNADYGASEAWIGINLDPRCPAEDASFTIIPNFAYFEFIPVNRDSAGYDSVEGDEIVGLTDVKVGQEYEIVLTTVGGLYRYRLGDIVKVTGFFNSTPKVAFVCRKGVVLSVNTDKTDEEELRLVVGKASLLLKESNMELADYSSYTDQDSQPGHYVIFWELRSHEHLDMDLLSECCKVLDQSFNNPYMRGRAARTIGPLELAIVKEGAFARLMEQFVRKNGVGASQYKVSRCFKNPATLKHFRDETIATLRSPDFPPELLAAWRPSTKIVG
With B1 the “kcat (hrs−1) IAA-Asp” value [1] was 2.896 h⁻¹, the “kcat (hrs−1) IAA-Glu” value [1] was 19.308 h⁻¹ and the “IAA conjugation activity with Asp or Glu” value ([1]; result in words) was “can also conjugate IAA to Asp and Glu; also recorded: active GH3 conjugase for both IAA and 2,4-D”. For the same molecule, the “Conjugation of dicamba with Glu” value ([2]; 16 hour reaction, result in words) was “could conjugate dicamba with Glu; also recorded: able to conjugate dicamba with glutamate”, the “Amount of dicamba-Glu conjugates versus amount of protein in the reaction” value ([2]; FIG. 7, result in words) was “Increased amount of dicamba-Glu was detected; also recorded: increases with increased amount of PpGH3-2 protein” and the “kcat (16 hrs^−1) dicamba-Glu” value ([2]; conjugation of dicamba with Glu, 16 hour reaction, protein conc. 983 μg/mL) was 0.024 16 hrs^−1. The “kcat (hrs−1) 2,4-D-Asp” value [3] was 0.699 h⁻¹, the “kcat (hrs−1) 2,4-D-Glu” value [3] was 2.820 h⁻¹ and the “2,4-D conjugation activity with Asp or Glu” value ([3]; result in words) was “active GH3 conjugase for both IAA and 2,4-D”.

B2: AIGH3-17: GH3 protein, accession XP_002890761 (protein, listed as Arabidopsis lyrata)
chain: MIPSYDPNDTEAGLKLLDDLTTNAETIQQQVLHQILSQNSGTQYLRAFLDGESDKNQQSFKNKVPVVNYDDIKPFIQRIADGESYDIVSAQPITELLTSSGTSAGKPKLMPSTAEELDRKTFFYSMLVPIMNKYVNGLDEGKGMYLLFIKPEIKTPSGLMARPVLTSYYKSQHFRNRPFNKYNVYTSPDQTILCQDSKQSMYCQLLCGLVQRSHVLRVGAVFASAFLRAVKFLEDHYKELCADIRTGTVTSWITNSSCRDSVLSILNGPNQELADEIESECAEKSWEGILRRIWPKAKYVEVIVTGSMAQYIPTLEFYSGGLPLVSTMYASSECYFGINLNPLCDPADVSYTLLPNMAYFEFLPVDDKSHEEIHFASHSNTDDDDDALKEDLIVDLVNVKVGQYYEIVITTFTGLYRYRVGDILKVTGFHNKAPQFRFVQRRNVVLSIDTDKTSEEDLLNAVTQAKLNHLQHPSSLLLMEYTSYADTSSIPGHYVLFWELKPRHSNDPPKLDDKTMDDCCSEVEDCLDYVYRRCRNRDKSIGPLEIRVVSLGTFDSLMDFCVSQGSSLNQYKTPRCVKSGGALEILDSRVIGRFFSKRVPQWEPLGLDS
In the case of B2, the “kcat (hrs−1) IAA-Asp” value [1] is reported as 33.508 h⁻¹, the “kcat (hrs−1) IAA-Glu” value [1] is reported as 317.690 h⁻¹ and the “kcat (hrs−1) 2,4-D-Asp” value [3] is reported as 0.212 h⁻¹. The “kcat (hrs−1) 2,4-D-Glu” value [3] was 0.455 h⁻¹.

B3: PtGH3-10: GH3 protein, accession EEE95291 (protein, listed as Populus trichocarpa)
chain: MEPKNTNGSSRSYEHDIISWFEDISKKAGQVQTETLRRILELNWGVEYLNKWLGDINIQDMDASALESLYTSLVPPASHADLEPYISRIADGDTVPLLTKQPITLLSLSSGTTDGRQKFVPFTDHSARTTLQIFSLAAAYRSRVYPTREGGRILEFIYSSKQFKTKGGLTAGTATTHYYASEEFKIKQEKTKCFTCSPQEVICGGDYEQSTYCHLLLGLFFCDQVEFITSTFAYSIVQAFTAFEDVWRDICNDIKHGTLSERINLAKMRKAVLSIISPNPSLASKIEENCKELETQNWLGLITKLWPNSKYVYSIMTGSMQPYFKKLRHYAGGLALVSADYGSTESWIGANVDPYLPPEDVTFAVIPTFSYYEFMPLYRENHYCGSAIDDFIEDEPVPLSKVKVGQEYEIVLTTFTGLYRCRLGDVVEVAGFHKGTPKLNFICRRKLILTINIDKNTEKDLQLVVEKGSQLLMSKARAELVDFTSHAELETQPGHYIIYWEIKGDVEEEVLGECCKKMDASFVDHGYVVSRRTKSIGPLELCIVKTGTFKKILEYFIGNGAALSQFKTPRCTSNHGLLKILNGSTIKRLYSTAYS
In the case of B3, the “Detected auxin conjugates: IAA-Asp” value ([1]; LC-MS, IAA with Asp) is reported as “Yes”, the “Detected auxin conjugates: IAA-Glu” value ([1]; LC-MS, IAA with Glu) is reported as “Yes” and the “Detected auxin conjugates: Dicamba-Asp” value ([2]; LC-MS, dicamba with Asp) is reported as “No”. The “Detected auxin conjugates: Dicamba-Glu” value ([2]; LC-MS, dicamba with Glu) was “No”, the “Detected auxin conjugates: 2,4-D-Asp” value ([3]; LC-MS, 2,4-D with Asp) was “Yes” and the “Detected auxin conjugates: 2,4-D-Glu” value ([3]; LC-MS, 2,4-D with Glu) was “Yes”.
